In experiment [1] the target is T1, SARS-CoV-2 spike protein on authentic virus, strain SARS-CoV-2/human/AUS/VIC01/2020 (Victoria) (SARS-CoV-2, UniProt P0DTC2 14-1273). The experiment can be described thus: cell-based or functional assay.
The target of experiment [2] is SARS-CoV-2 spike protein on authentic virus, strain B.1.1.7 (SARS-CoV-2, UniProt P0DTC2 14-1273). The experiment can be described thus: cell-based or functional assay.
Experiment [3] deals with T1, SARS-CoV-2 spike protein on authentic …. The experiment can be described thus: cell-based or functional assay. The source holds these as a separate data set.
Experiment [4] has the same target. The experiment can be described thus: calculated from whole-virus ELISA binding and FRNT50.
Experiment [5] has the same target. Put plainly: whole-virus capture ELISA, half-maximal binding. (ELISA stands for enzyme-linked immunosorbent assay.)
The target of experiment [6] is T2, SARS-CoV-2 spike on whole virus (SARS-CoV-2/human/AUS/VIC01/2020, Victoria) (SARS-CoV-2, UniProt P0DTC2 14-1273).
Experiment [7] addresses T2, SARS-CoV-2 spike on whole virus …. Put plainly: cell-based or functional assay.

The values that follow come from patent US20240043507A1 (RQ BIOTECHNOLOGY, published 2024).

B1: antibody 88, full-length IgG (antibody, V domains shown)
VH: QLQLQESGPGLVKPSQTLSLTCTVSGGSISSGSYNWTWIRQPAGKGLEWIGRIYNSGSTNYNPSLKSRVTISVDTSKNQLSLKVRSVTAADTAVYYCARHCSGGTCYPKYYYGMDVWGQGTTVTVSS
VL: QSALTQPPSVSEAPRQRVTISCSGSSSNIGNNAVNWYQQFPGKAPKLLIYYDDLLPSGVSDRFSGSKSGTSASLAISGVQSEDEADYYCAAWDDSLNVVVFGGGTKLTVL
notes: also called mAb 88; 88 IgG
On to B1, for which the “IC50 (ug/ml), FRNT” value was determined as 0.033 µg/mL in experiment [1] and 0.058 µg/mL in experiment [2]. Besides, the “Neutralisation IC50” value in experiment [3] turned out to be 0.07 nM. Also, the “% Occupancy” value in experiment [4] is 21.9%. In addition, the Kd (as a rule, the equilibrium constant for the complex coming apart) in experiment [5] was 0.25 nM.

B2: mAb 88 (antibody, V domains shown)
VH: QLQLQESGPGLVKPSQTLSLTCTVSGGSISSGSYNWTWIRQPAGKGLEWIGRIYNSGSTNYNPSLKSRVTISVDTSKNQLSLKVRSVTAADTAVYYCARHCSGGTCYPKYYYGMDVWGQGTTVTVSS
VL: QSALTQPPSVSEAPRQRVTISCSGSSSNIGNNAVNWYQQFPGKAPKLLIYYDDLLPSGVSDRFSGSKSGTSASLAISGVQSEDEADYYCAAWDDSLNVVVFGGGTKLTVL
Regarding B2, the EC50 (read off the curve) (in general, the midpoint of the concentration-response curve) in experiment [6] was about 0.2 nM.

B3: antibody 40, full-length IgG (antibody, V domains shown)
VH: QVQLVESGGGLVQPGGSLRLSCAVSGFTVSRNYMSWVRQAPGKGLEWVSLIYSGGSTFYADSVKGRFTISRDNSKNTLYLQMNSLRAEDTAVYYCARDLFHRSGYHDYWGQGTLVTVSS
VL: not shown
notes: also called mAb 40; 40 IgG
Regarding B3, the “IC50 (ug/ml), FRNT” value in experiment [1] was 0.026 µg/mL; in experiment [2], 0.035 µg/mL. Besides, the “Neutralisation IC50” value in experiment [3] stood at 0.16 nM. Also, in experiment [4], the “% Occupancy” value was 33.3%. This molecule showed a Kd in experiment [5] of 0.33 nM.

B4: mAb 40 (antibody, V domains shown)
VH: QVQLVESGGGLVQPGGSLRLSCAVSGFTVSRNYMSWVRQAPGKGLEWVSLIYSGGSTFYADSVKGRFTISRDNSKNTLYLQMNSLRAEDTAVYYCARDLFHRSGYHDYWGQGTLVTVSS
VL: not shown
On to B4, for which the “EC50 (read off the curve)” value in experiment [6] was about 0.3 nM.

B5: antibody 384, full-length IgG (antibody, V domains shown)
VH: EVQLVESGGGLVKPGESLRLSCAASGFTFSDYYMTWIRQAPGKGLEWVSYIRSSGHTIYYADSVKGRFTISRDNAKNSLYLQMNSLRVEDTAVYYCARGGVLRFLEWPLNAFDIWGQGTMVTVSS
VL: DIQLTQSPSSLSASVGDRVTITCRASQGISNYLAWYQQKPGKVPKLLIYAASTLQSGVPSRFSGSGSGTDFTLTISSLQPEDVATYYCQKYNNALGTFGQGTKVEIK
As for B5, in experiment [2], the “IC50 (ug/ml), FRNT” value came to 0.005 µg/mL.

B6: mAb 222 (antibody, V domains shown)
VH: EVQLVESGGGLIQPGGSLRLSCAASGLTVSSNYMSWVRQAPGKGLEWVSVIYSGGSTFYADSVKGRFTISRDNSKNTLYLQMNSLGAEDTAVYYCARGEGSPGNWFDPWGQGTLVTVSS
VL: DVVMTQSPGTLSLSPGERATLSCRASQSVPSSYLAWYQQKPGQAPRLLIYGASTRATGIPDRFSGSGSGTDFTLTISRLEPEDFAVYYCQHYDTSPRFGGGTKVDIK
Turning to B6, the “Neutralisation IC50 (FRNT)” value in experiment [7] turned out to be 0.016 µg/mL.

B7: antibody 150, full-length IgG (antibody, V domains shown)
VH: QVQLVESGGGLIQPGGSLRLSCAASGVTVSSNYMSWVRQAPGKGLEWVSIIYSGGTTYYADSVKGRFTISRDSSMNTLYLQMNSLRAEDTAVYYCARDLMVYGIDVWGQGTTVTVSS
VL: EIVMTQSPSSLSASVGDRVTITCRASQGISSYLAWYQQKPGKAPKLLIYAASTLQSGVPSRFSGSGSGTDFTLTISSLQPEDFATYYCQQLDSYPPGYTFGQGTKVDIK
As for B7, in experiment [2], the “B.1.1.7/Victoria Ratio of IC50” value came out at 12 and the “IC50 (ug/ml), FRNT” value turned out to be 0.139 µg/mL.

B8: mAb 159 (antibody, V domains shown)
VH: EVQLVESGGGVVQPGRSLRLSCAASGFTFSSYGMHWVRQAPGKGLEWVALISYDGGNRYYADSVKGRFTISRDNSKNTLYLQMNRLRAEDTAMYYCAKDRDDGWDWYYFMDVWGKGTTVTVSS
VL: DIQLTQSPGTLSLSPGERATLSCRASQSISGNYLAWYQHKPGQAPRLLIYGASTRATGIPDRFSGSGSGTDFTLTISRLEPEDFAVYYCQQYGSSYTFGQGTKVEIK
Turning to B8, the “Neutralisation IC50 (FRNT)” value in experiment [7] worked out at 0.005 µg/mL.

B9: antibody 159, full-length IgG (antibody, V domains shown)
VH: EVQLVESGGGVVQPGRSLRLSCAASGFTFSSYGMHWVRQAPGKGLEWVALISYDGGNRYYADSVKGRFTISRDNSKNTLYLQMNRLRAEDTAMYYCAKDRDDGWDWYYFMDVWGKGTTVTVSS
VL: DIQLTQSPGTLSLSPGERATLSCRASQSISGNYLAWYQHKPGQAPRLLIYGASTRATGIPDRFSGSGSGTDFTLTISRLEPEDFAVYYCQQYGSSYTFGQGTKVEIK
In the case of B9, the “IC50 (ug/ml), FRNT” value in experiment [1] is 0.011 µg/mL. Besides, in experiment [2], the “B.1.1.7/Victoria Ratio of IC50” value came out at 5.71 and the “IC50 (ug/ml), FRNT” value worked out at 0.061 µg/mL. The “Neutralisation IC50” value in experiment [3] came out at 0.08 nM. Also, in experiment [4], the “% Occupancy” value is 30%. In addition, the affinity in experiment [5], expressed as Kd, was 0.19 nM.

B10: mAb 175 (antibody, V domains shown)
VH: EVQLVESGGGLIQPGGSLRLSCAASGLTVSRNYMSWVRQAPGKGLEWVSLIYSGGSTYYADSVKGRFTISRDNSKNTLYLQMNSLRAEDTAVYYCARDLRGEVWGQGTMVTVSS
VL: not shown
Turning to B10, the “Neutralisation IC50 (FRNT)” value in experiment [7] turned out to be 0.033 µg/mL.

B11: mAb 316 (antibody, V domains shown)
VH: not shown
VL: QAVLTQPPSASGSPGQSVTISCTGTSSDVGGYNYVSWYQQHPGKAPKLMIYEVSKRPSGVPDRFSGSKSGNTASLTVSGLQAEDEADYYCSSYAGSNHWVFGGGTKLTVL
With B11, the “Neutralisation IC50 (FRNT)” value in experiment [7] amounted to 0.01 µg/mL. Besides, the “EC50 (read off the curve)” value in experiment [6] was about 0.1 nM.

B12: antibody 316, full-length IgG (antibody, V domains shown)
VH: not shown
VL: QAVLTQPPSASGSPGQSVTISCTGTSSDVGGYNYVSWYQQHPGKAPKLMIYEVSKRPSGVPDRFSGSKSGNTASLTVSGLQAEDEADYYCSSYAGSNHWVFGGGTKLTVL
notes: also called mAb 316; 316 IgG
As for B12, the results for the “IC50 (ug/ml), FRNT” value in experiment [1] and in experiment [2] were 0.018 µg/mL and 0.024 µg/mL, respectively. Also, the “Neutralisation IC50” value in experiment [3] amounted to 0.08 nM. In experiment [4], the “% Occupancy” value is 35.4%. The Kd in experiment [5] worked out at 0.13 nM.

B13: antibody 158, full-length IgG (antibody, V domains shown)
VH: EVQLLESGGDLIQPGGSLRLSCAASGVTVSSNYMSWVRQAPGKGLEWVSIIYPGGSTFYADSVKGRFTISRDNSKNTLYLQMHSLRAEDTAVYYCARDLGSGDMDVWGKGTTVTVSS
VL: DIVMTQSPSFLSASVGDRVTITCRASQGISSYLAWYQQKPGKAPKLLIQAASTLQSGVPSRFSGSGSGTEFTLTISSLQPEDFATYYCQQLNSYRYTFGQGTKVEIK
notes: also called mAb 158; 158 IgG
In the case of B13, the results for the “IC50 (ug/ml), FRNT” value in experiment [1] and in experiment [2] were 0.031 µg/mL and 0.254 µg/mL, respectively. For the same molecule, in experiment [3], the “Neutralisation IC50” value came out at 0.13 nM. In addition, the “% Occupancy” value in experiment [4] is 20.5%. Further, binding in experiment [5] was put at a Kd of 0.5 nM.

B14: mAb 158 (antibody, V domains shown)
VH: EVQLLESGGDLIQPGGSLRLSCAASGVTVSSNYMSWVRQAPGKGLEWVSIIYPGGSTFYADSVKGRFTISRDNSKNTLYLQMHSLRAEDTAVYYCARDLGSGDMDVWGKGTTVTVSS
VL: DIVMTQSPSFLSASVGDRVTITCRASQGISSYLAWYQQKPGKAPKLLIQAASTLQSGVPSRFSGSGSGTEFTLTISSLQPEDFATYYCQQLNSYRYTFGQGTKVEIK
Regarding B14, the “Neutralisation IC50 (FRNT)” value in experiment [7] was determined as 0.034 µg/mL. Moreover, the “EC50 (read off the curve)” value in experiment [6] was about 0.5 nM.

B15: mAb 253H165L (antibody, V domains shown)
VH: not shown
VL: DIVMTQSPGTLSLSPGERATLSCRASQSVRSSYLAWYQQKPGQAPRLLIYGASRRGTGIPDRFSGSGSGTDFTLTISRLEPEDFAVYYCQQYGSSPWTFGQGTKVEIK
For B15, the “Neutralisation IC50 (FRNT)” value in experiment [7] was 0.003 µg/mL. Further, in experiment [6], the “EC50 (read off the curve)” value was about 0.1 nM.

B16: mAb 165 (antibody, V domains shown)
VH: QVQLVQSGPEVKKPGTSVKVSCKASGFTFTSSAVQWVRQARGQRLEWIGWIVVGSGNTNYAQKFQESVTITRDMSTSTAYMELSSLRSEDTAVYYCAAPHCIGGSCHDAFDIWGQGTMVTVSS
VL: DIVMTQSPGTLSLSPGERATLSCRASQSVRSSYLAWYQQKPGQAPRLLIYGASRRGTGIPDRFSGSGSGTDFTLTISRLEPEDFAVYYCQQYGSSPWTFGQGTKVEIK
Regarding B16, the “Neutralisation IC50 (FRNT)” value in experiment [7] stood at 0.021 µg/mL.

B17: mAb 269 (antibody, V domains shown)
VH: QVQLVESGGGLIQPGGSLRLSCAASGLTVNRNYMSWIRQAPGKGLEWVSVIYSGGSTFYADSVKGRFTISRDNSKNTLSLQMNSLRAEDTAIYYCARDFYEGSFDIWGQGTMVTVSS
VL: AIQLTQSPSFLSASIGDRVTITCRASQGISSYLAWYQQKPGKAPKLLIYAASTLQSGVPSRFSGSGSGTEFTLTISSLQPEDFASYYCQQLNSYPAPVFGPGTKVDIK
For B17, the “Neutralisation IC50 (FRNT)” value in experiment [7] came to 0.036 µg/mL.

B18: mAb 318 (antibody, V domains shown)
VH: QVQLVQSGPEVKKPGTSVKVSCKASGFTLTSSAMQWVRQARGQRLEWIGWIVVGSGNTNYAQKFQERVTITRDMSTSTAYMELSSLRSEDTAVYYCAAGRGYNSDFDYWGQGTLVTVSS
VL: AIRMTQSPGTLSLSPGERATLSCRASQSVSSSYLAWYQQRPGQAPRLLIYGTSSRATGIPDRFSGSGSGTDFTLTISRLEPEDFAVYYCQQYGYSVYTFGQGTKVDIK
B18: the “Neutralisation IC50 (FRNT)” value in experiment [7] was 0.015 µg/mL.
